# Laboratory results: patent US20120021972A1 (CADILA HEALTHCARE, published 2012)
# Starred links: 1 amine or outer side, 2 acyl side, 3 side chain; linkers in the order of their positions; H or OH if unused. Non-standard residues stand in square brackets, D forms with d. No end group written: not given here. *: point of attachment. NMe2F‑APPA = N-methyl-2-amino-5-(2-fluorophenyl)pentanoic acid, CN([C@@H](CCCc1ccccc1F)C(=O)[*:2])[*:1]; 2,4‑diF‑APPA = 2-amino-5-(2,4-difluorophenyl)pentanoic acid, O=C([C@H](CCCc1ccc(F)cc1F)N[*:1])[*:2]; AMCB = 2-amino-5-(4-chloro-2-methylphenyl)pentanoic acid, Cc1cc(Cl)ccc1CCC[C@H](N[*:1])C(=O)[*:2]; ACPP = 2-amino-5-(3-chlorophenyl)pentanoic acid, O=C([C@H](CCCc1cccc(Cl)c1)N[*:1])[*:2]; 2F,4CF3‑APPA = 2-amino-5-(2-fluoro-4-(trifluoromethyl)phenyl)pentanoic acid; Bip(2'-Et-4'-OMe) = CCc1cc(OC)ccc1-c1ccc(C[C@H](N)C(=O)O)cc1; Nva(5-(3,5-Me2Ph)) = Cc1cc(C)cc(CCC[C@H](N)C(=O)O)c1; 2F‑APPA = 2-amino-5-(2-fluorophenyl)pentanoic acid; αMePhe(2-F) = C[C@](N)(Cc1ccccc1F)C(=O)O; NMeBip(OMe) = N-methylated Bip(OMe); hhPhe = N[C@@H](CCCc1ccccc1)C(=O)O; 2,4‑diCl‑APPA = not defined here; NMeD = CN[C@@H](CC(=O)O)C(=O)O; aThr = C[C@H](O)[C@H](N)C(=O)O; αMeP = C[C@@]1(C(=O)O)CCCN1; NMeAPPA = not defined here; Ac5c = NC1(C(=O)O)CCCC1; CNB = not defined here; Aib = CC(C)(N)C(=O)O; Moc = COC(=O)*
# Target: human glucagon receptor (human, UniProt P47871 26-477)
# Assay: cell-based or functional assay
"inhibition of cAMP production, 1 nM","inhibition of cAMP production, 10 nM","inhibition of cAMP production, 100 nM","inhibition of cAMP production, 1 µM","inhibition of cAMP production, 10 µM",Binder
4 pmol/ml/µg prt,2 pmol/ml/µg prt,2 pmol/ml/µg prt,0 pmol/ml/µg prt,0 pmol/ml/µg prt,H[Aib]QG[aThr][αMePhe(2-F)][aThr]SD[Bip(2'-Et-4'-OMe)][2F‑APPA] (also: reduced (CH2) bond between 10 and 11) [Seq. ID. No. 191: H-Aib-QG-T(allo)-(α-Me-2F-Phe)-T(allo)-SD-Bip(OMe)-(CH2)-(2F-APPA)]
6 pmol/ml/µg prt,5 pmol/ml/µg prt,2 pmol/ml/µg prt,0 pmol/ml/µg prt,0 pmol/ml/µg prt,Moc-H[Aib]QGT[αMePhe(2-F)]TSD[Bip(2'-Et-4'-OMe)][hhPhe] (also: thioamide bonds between residues 9-10 and 10-11) [Seq. ID. No. 170: CH3OCO-H-Aib-QGT-(α-Me-2F-Phe)-TSD-(C═S)-Bip(OMe)-(C═S)-(APPA)]
10 pmol/ml/µg prt,8 pmol/ml/µg prt,6 pmol/ml/µg prt,4 pmol/ml/µg prt,1 pmol/ml/µg prt,Moc-H[Aib]QG[aThr][αMePhe(2-F)][aThr]S[NMeD][NMeBip(OMe)][NMeAPPA] (reading uncertain)
22 pmol/ml/µg prt,21 pmol/ml/µg prt,20 pmol/ml/µg prt,18 pmol/ml/µg prt,18 pmol/ml/µg prt,"H[Aib][CNB]GTFTSD[Bip(2'-Et-4'-OMe)][2,4‑diF‑APPA] (reading uncertain) [Seq. ID. No. 78: H-Aib-(CNB)-GTFTSD-Bip(OMe)-(2,4-diF-APPA)]"
15 pmol/ml/µg prt,12 pmol/ml/µg prt,8 pmol/ml/µg prt,4 pmol/ml/µg prt,2 pmol/ml/µg prt,H[Aib][CNB]G[aThr][αMePhe(2-F)][aThr]SD[Bip(2'-Et-4'-OMe)][NMe2F‑APPA] (reading uncertain) [Seq. ID. No. 132: H-Aib-(CNB)-G-T(allo)-(α-Me-2F-Phe)-T(allo)-SD-Bip(OMe)-((NMe)(2F-APPA))]
10 pmol/ml/µg prt,8 pmol/ml/µg prt,6 pmol/ml/µg prt,2 pmol/ml/µg prt,0 pmol/ml/µg prt,H[Aib][CNB]G[aThr][αMePhe(2-F)][aThr]SD[NMeBip(OMe)][NMeAPPA] (reading uncertain) [Seq. ID. No. 142: H-Aib-(CNB)-G-T(allo)-(α-Me-2F-Phe)-T(allo)-SD-((NMe)Bip(OMe))-((NMe)(APPA))]
5 pmol/ml/µg prt,3 pmol/ml/µg prt,1 pmol/ml/µg prt,0 pmol/ml/µg prt,0 pmol/ml/µg prt,Moc-H[Aib]QG[aThr][αMePhe(2-F)][aThr]SD[Bip(2'-Et-4'-OMe)][2F‑APPA] (also: reduced (CH2) bond between 10 and 11) [Seq. ID. No. 188: CH3OCO-H-Aib-QG-T(allo)-(α-Me-2F-Phe)-T(allo)-SD-Bip(OMe)-(CH2)-(2F-APPA)]
0 pmol/ml/µg prt,0 pmol/ml/µg prt,0 pmol/ml/µg prt,0 pmol/ml/µg prt,0 pmol/ml/µg prt,H[Aib]QG[aThr][αMePhe(2-F)][aThr]SD[Bip(2'-Et-4'-OMe)][hhPhe] (also: thioamide bonds between residues 9-10 and 10-11) [Seq. ID. No. 177: H-Aib-QG-T(allo)-(α-Me-2F-Phe)-T(allo)-SD-(C═S)-Bip(OMe)-(C═S)-(APPA)]
3 pmol/ml/µg prt,1 pmol/ml/µg prt,0 pmol/ml/µg prt,0 pmol/ml/µg prt,0 pmol/ml/µg prt,H[Aib]QG[aThr][αMePhe(2-F)][aThr]SD[Bip(2'-Et-4'-OMe)][hhPhe] (also: reduced (CH2) bond between 10 and 11) [Seq. ID. No. 189: H-Aib-QG-T(allo)-(α-Me-2F-Phe)-T(allo)-SD-Bip(OMe)-(CH2)-(APPA)]
4 pmol/ml/µg prt,2 pmol/ml/µg prt,0 pmol/ml/µg prt,0 pmol/ml/µg prt,0 pmol/ml/µg prt,Moc-H[Aib]QGT[αMePhe(2-F)]TSD[Bip(2'-Et-4'-OMe)][2F‑APPA] (also: thioamide bonds between residues 9-10 and 10-11) [Seq. ID. No. 172: CH3OCO-H-Aib-QGT-(α-Me-2F-Phe)-TSD-(C═S)-Bip(OMe)-(C═S)-(2F-APPA)]

# More lines, now with the values behind:
Binder,"inhibition of cAMP production, 1 nM","inhibition of cAMP production, 10 nM","inhibition of cAMP production, 100 nM","inhibition of cAMP production, 1 µM","inhibition of cAMP production, 10 µM"
"HSQGTFTSD[Bip(2'-Et-4'-OMe)][2,4‑diCl‑APPA] (reading uncertain) [Seq. ID. No. 51: HSQGTFTSD-Bip(OMe)-(2,4-diCl-APPA)]",5 pmol/ml/µg prt,3 pmol/ml/µg prt,0 pmol/ml/µg prt,0 pmol/ml/µg prt,0 pmol/ml/µg prt
"H[Aib]QGTFTSD[Bip(2'-Et-4'-OMe)][2F,4CF3‑APPA] [Seq. ID. No. 65: H-Aib-QGTFTSD-Bip(OMe)-(2F,4CF3-APPA)]",10 pmol/ml/µg prt,8 pmol/ml/µg prt,6 pmol/ml/µg prt,4 pmol/ml/µg prt,1 pmol/ml/µg prt
"H[Ac5c]QGTFTSD[Bip(2'-Et-4'-OMe)][Nva(5-(3,5-Me2Ph))] [Seq. ID. No. 26: H-(APP)-QGTFTSD-Bip(OMe)-(ADMP)]",15 pmol/ml/µg prt,12 pmol/ml/µg prt,8 pmol/ml/µg prt,4 pmol/ml/µg prt,2 pmol/ml/µg prt
H-HSQGTFTSD[Bip(2'-Et-4'-OMe)][hhPhe]-NH2 [Seq. ID. No. 5: HSQGTFTSD-Bip(OMe)-(APPA)],6 pmol/ml/µg prt,5 pmol/ml/µg prt,3 pmol/ml/µg prt,0 pmol/ml/µg prt,0 pmol/ml/µg prt
H[Ac5c]QGTFTSD[Bip(2'-Et-4'-OMe)][AMCB] [Seq. ID. No. 28: H-(APP)-QGTFTSD-Bip(OMe)-(AMCB)],14 pmol/ml/µg prt,11 pmol/ml/µg prt,7 pmol/ml/µg prt,3 pmol/ml/µg prt,0 pmol/ml/µg prt
H[Aib][CNB]GTFTSD[Bip(2'-Et-4'-OMe)][ACPP] (reading uncertain) [Seq. ID. No. 31: H-Aib-(CNB)-GTFTSD-Bip(OMe)-(ACPP)],6 pmol/ml/µg prt,5 pmol/ml/µg prt,2 pmol/ml/µg prt,0 pmol/ml/µg prt,0 pmol/ml/µg prt
"HSQGTFTSD[Bip(2'-Et-4'-OMe)][2F,4CF3‑APPA] [Seq. ID. No. 49: HSQGTFTSD-Bip(OMe)-(2F, 4CF3-APPA)]",10 pmol/ml/µg prt,8 pmol/ml/µg prt,6 pmol/ml/µg prt,2 pmol/ml/µg prt,0 pmol/ml/µg prt
H[αMeP]QGTFTSD[Bip(2'-Et-4'-OMe)][hhPhe] [Seq. ID. No. 9: H-(α-Me-Pro)-QGTFTSD-Bip(OMe)-(APPA)],5 pmol/ml/µg prt,3 pmol/ml/µg prt,0 pmol/ml/µg prt,0 pmol/ml/µg prt,0 pmol/ml/µg prt
